According to PMC10397247:

Legend:
Test in all cases: two-hybrid library CCNG1;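 also: natural log of median RNA to DNA barcode read ratio; higher means stronger binding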
[1] = biological target: T1, P4A-bA
T1 chain: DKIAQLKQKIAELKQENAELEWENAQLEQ

[2] = biological target: T2, P12A-bA
T2 chain: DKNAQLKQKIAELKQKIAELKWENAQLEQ

[3] = biological target: T3, P2A-bA
T3 chain: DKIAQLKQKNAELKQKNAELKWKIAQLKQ

[4] = biological target: T4, P5A-bA
T4 chain: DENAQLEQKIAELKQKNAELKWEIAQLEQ

[5] = biological target: T5, P7A-bA
T5 chain: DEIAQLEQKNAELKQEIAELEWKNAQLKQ

[6] = biological target: T6, P6A-bA
T6 chain: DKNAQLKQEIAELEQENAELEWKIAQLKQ

[7] = biological target: T7, P3A-bA
T7 chain: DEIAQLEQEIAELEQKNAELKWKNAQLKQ

[8] = biological target: T8, P9A-bA
T8 chain: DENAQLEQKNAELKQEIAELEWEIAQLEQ

[9] = biological target: T9, P8A-bA
T9 chain: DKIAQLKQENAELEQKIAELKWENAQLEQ

[10] = biological target: T10, P11A-bA
T10 chain: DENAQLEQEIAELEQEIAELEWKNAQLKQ

[11] = biological target: T11, P1A-bA
T11 chain: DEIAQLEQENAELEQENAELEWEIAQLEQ

[12] = biological target: T12, 4H2610-bA
T12 chain: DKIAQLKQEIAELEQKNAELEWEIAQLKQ

[13] = biological target: T13, 4H3606-bA
T13 chain: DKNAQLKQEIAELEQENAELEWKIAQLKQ

[14] = biological target: T14, 4H918-bA
T14 chain: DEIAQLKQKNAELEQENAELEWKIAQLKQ

[15] = biological target: T15, 4H797-bA
T15 chain: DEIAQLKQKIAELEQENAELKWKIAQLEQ

[16] = biological target: T16, 4H967-bA
T16 chain: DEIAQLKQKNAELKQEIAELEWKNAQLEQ

[17] = biological target: T17, 4H3855-bA
T17 chain: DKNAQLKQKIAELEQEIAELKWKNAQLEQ

[18] = biological target: T18, 4H1845-bA
T18 chain: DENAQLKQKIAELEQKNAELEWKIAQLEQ

[19] = biological target: T19, 4H687-bA
T19 chain: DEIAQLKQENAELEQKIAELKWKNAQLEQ

[20] = biological target: T20, 4H331-bA
T20 chain: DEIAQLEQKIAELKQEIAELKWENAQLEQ

[21] = biological target: T21, 4H3843-bA
T21 chain: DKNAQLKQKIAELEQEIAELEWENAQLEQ

[22] = biological target: T22, 4H72-bA
T22 chain: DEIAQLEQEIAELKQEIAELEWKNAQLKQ

[23] = biological target: T23, 4H4001-bA
T23 chain: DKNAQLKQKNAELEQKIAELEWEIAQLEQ

[24] = biological target: T24, 4H883-bA
T24 chain: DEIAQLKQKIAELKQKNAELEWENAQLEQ

[25] = biological target: T25, 4H2576-bA
T25 chain: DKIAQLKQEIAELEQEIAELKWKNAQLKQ

[26] = biological target: T26, 4H607-bA
T26 chain: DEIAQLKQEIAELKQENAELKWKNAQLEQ

[27] = biological target: T27, 4H3189-bA
T27 chain: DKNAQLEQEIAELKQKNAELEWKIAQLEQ

[28] = biological target: T28, 4H2667-bA
T28 chain: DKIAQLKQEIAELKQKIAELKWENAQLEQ

[29] = biological target: T29, 4H953-bA
T29 chain: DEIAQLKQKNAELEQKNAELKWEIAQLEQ

[30] = biological target: T30, 4H462-bA
T30 chain: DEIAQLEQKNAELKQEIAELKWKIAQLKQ

[31] = biological target: T31, 4H568-bA
T31 chain: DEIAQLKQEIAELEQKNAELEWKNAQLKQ

[32] = biological target: T32, 4H1369-bA
T32 chain: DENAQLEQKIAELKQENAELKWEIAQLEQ

[33] = biological target: T33, 4H370-bA
T33 chain: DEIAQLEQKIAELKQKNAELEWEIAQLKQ

[34] = biological target: T34, 4H1446-bA
T34 chain: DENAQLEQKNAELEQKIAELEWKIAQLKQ

[35] = biological target: T35, 4H570-bN
T35 chain: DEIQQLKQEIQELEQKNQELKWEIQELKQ

[36] = biological target: T36, 4H2697-bA
T36 chain: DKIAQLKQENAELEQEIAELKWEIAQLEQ

[37] = biological target: T37, 4H3782-bA
T37 chain: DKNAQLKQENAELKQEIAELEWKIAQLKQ

Binder: DENAQLEQEIAELEQEIAELEWKNAQLKQ [P11A-bA]
- interaction score [1]: 1.83
- interaction score [2]: 1.91
- interaction score [3]: 1.07
- interaction score [4]: 0.849
- interaction score [5]: -1.28
- interaction score [6]: 0.118
- interaction score [7]: -0.656
- interaction score [8]: -0.585
- interaction score [9]: -0.166
- interaction score [10]: -1.39
- interaction score [11]: 0.307

Binder: DENAQLEQKIAELKQENAELKWEIAQLEQ [4H1369-bA]
- interaction score [12]: -0.708
- interaction score [13]: 2.35
- interaction score [14]: -1.28
- interaction score [15]: -0.836
- interaction score [16]: -1.41
- interaction score [17]: -1.08
- interaction score [18]: -1.43
- interaction score [19]: -0.0949
- interaction score [20]: -0.963
- interaction score [21]: -0.634
- interaction score [22]: -1.2
- interaction score [23]: -0.513
- interaction score [24]: -1.53
- interaction score [25]: -0.209
- interaction score [26]: -1.2
- interaction score [27]: -0.843
- interaction score [28]: -0.912
- interaction score [29]: -1.23
- interaction score [30]: -0.339
- interaction score [31]: -1.77
- interaction score [32]: -0.294
- interaction score [33]: -1.03
- interaction score [34]: -0.956
- interaction score [35]: 0.413
- interaction score [36]: -0.782
- interaction score [37]: -0.939
